Measured values taken from patent US12611470B2, “Chromatin-opening element for stable long term gene expression” (CZ Biohub SF, LLC, priority 2019, dated 2026).

Test system: P19 cells
Assay: Lentiviral transduction silencing experiment, UCOE linked to CMV, EF1α, RSV or PGK promoter driving GFP
Format: cell-based, mouse
Text: The graphs show the raw data of measured percent GFP positive cells (% GFP+) for each construct over time. Transduced populations were sorted into triplicate wells using FACS at day 0 (5 days after lentiviral transductions) to begin the study at 100% GFP positive cells. Expression is lost quickly within the first 10 days, and then stabilizes around day 15. Data is reported as mean±SD from biological triplicates. Two positive UCOE controls (A2UCOE, 3′UCOE) and a negative control (no insulator region) were used.
Percent GFP positive cells at the final timepoint (day 26 for CMV and RSV, day 27 for PGK and EF1α) of the lentivirus silencing experiment across the four tested promoters is plotted. P19 cells were FACS-sorted five days after transduction (day 0) and then assayed over a 26 or 27-day time period thereafter. Data is reported as mean±SD from three biological replicates.
Two plasmids (pCS3800: encoding HIV-1 Gag; pCS380: encoding VSVg envelope protein) were used with varying versions of the donor plasmid pCS3799. HEK293T cells were plated at 5×10^6 cells in a 10 cm dish. Twenty-four hours after plating, the three plasmids (10 μg donor, 8 μg pCS3800, 10 μg pCS3801) were co-transfected together using a calcium phosphate protocol (Zufferey, R. T. and Trono, D. (2001) Current Protocols in Human Genetics, 26 (1), 12.10.1-12.10.12; DOI: 10.1002/0471142905.hg1210s26 (55)). The total DNA was brought to 500 μL in water, to which 500 μL of 2×HEPES-buffered saline, pH7.0 (Alfa Aesar) was added and mixed. One-tenth of the total volume (100 μL) of 2.5 M calcium chloride (Sigma-Aldrich) was then added to the mixture, followed by a 20-minute incubation. The mixture was then added to the plate in a dropwise manner. Media was replaced six hours later, and the supernatant was collected at 48 hr after the transfection, filtered through 0.4 μm filter, and frozen at −80° C. in 1 mL aliquots. Lentiviral aliquots were thawed in a 37° C. bead bath before transductions.
P19 cells were plated at 20-30,000 cells/well in 12-well plates one day before transduction. Twenty-four hours after plating, cells were transduced at varying dilutions of the lentiviral stock (ranging from 1:2 to 1:100) in DMEM+10% FBS with 8 μg/mL polybrene (Santa Cruz Biotechnologies). Media was refreshed on P19 cells 24 hours after transduction, and cells were passaged and assayed through a MACSQuant® VYB flow cytometer (Miltenyi Biotec) 48 h after transduction. MOI was determined by reporter expression at this timepoint using the following formula: MOI=ln (1/1-p) where p is the % of cells that are GFP positive at 48 hours post-transduction (Chen, S. et al. (2015) Cell, 160, 1246-1260 (56)).
Cells were FACS-sorted on the BD Influx™ cell sorter at the Stanford FACS Facility using the 488-nm laser and 525/40 filter to assay GFP expression. After gating for singlets and viability, GFP+ gate was drawn to be <0.1% GFP positive in non-transduced P19 cells. GFP+ gates were re-drawn for each promoter set to avoid the ˜10% highest and lowest expressing cells within the GFP+ gate, but the same gate was used for every experimental condition under the same promoter. Triplicate wells of each population (12-15,000 cells/well in a 24-well plate) were collected.
Fluorescence data throughout silencing experiments was obtained using a MACSQuant® VYB flow cytometer (Miltenyi Biotec). EGFP was measured through the 488-nm laser and 525/50 nm band pass filter. Flow cytometry data was analyzed using the FlowJo™ single cell flow cytometry analysis software (Tree Star). After being gated for singlets and viability, GFP+ gates in FlowJo were drawn such that a non-transfected or non-transduced P19 cell population was at 1% GFP+. Median values reported are of cells within the GFP+ gate, both % GFP positive and median are reported with the standard deviation of biological replicates. […]

B1: Candidate 6: Full length SRF-UCOE, SEQ ID NO:1; region between human SURF1 and SURF2 including first introns, chr9 (nucleic acid, listed as Homo sapiens)
DNA: GCACACGACCACAATTCCACTGAAAGCATTTTAATACGGAACTTGTCACTCCCAGGGAGCCTCCGCTCAGCCGGCAGTTGGTTCATTTCAATCCCCACGACAACCCTTCAAAGTGCAGGGCAGACAGCAGGTGGCTCTGCCCAGGCGCCTGGATCACAGCCCGGCCTGCAGCCCTCACCTGGGCGCGGGGAGACCCTGAGGACGCTCCTCCAGGCGGCGCTGGCCGGGGCCTGCGGACACGGACGGGCGGGCTGAGCTCCGGGACCCCTCCCCGCGCCCCGCACCCCGCACCCCGCACCCCGCACCCCGCACCCGGCGCTCACCCGTCCCAGCCCCGCCGCCCGCAGCCCCAGCTGCAACGCAGCCACCGCCGCCATCGCACCCGGCCCCGCGGGCGCTTCCGGGACGCAGGAGGCATCTGCATCCGGGGCGCCGCTGAGTCCCGCCCAGAGCCCCGCCCCCGGCTCCAGGTTCTGCGAGCGGCTTCCGCCGGGCTGCTCCGCGGGCGCGTCGGCCATGAGCGAGTTGCCGGGCGACGTGCGGGCGTTTCTGCGGGAGCACCCGAGCCTGCGGCTCCAGACGGACGCCCGCAAGGTTCGCAGCGCGGGAGGGGAACGGAGTGGCGGAGAAGGGCGCAGTTGGGATGAGGGGCTGAGGGGAGGGCAGGGGAGAGGAGAGGGCAGGGGAGAGGGGAGAGGGGAGAGCAGGAGAGAGGGGAAGGCAGGGGAGAGGGCGCGGCGGGATCAGGGGAGGAGAGGGAAGGGGGCGCGGCAGGAGGGGGCACCAGGGAGCGGAGCCCTGGCCCTCCTGACGTCCTGCCCGCCCACGCGTCCGCAGGTGAGGTGCATCCTGACAGGTCACGAGCTGCCCTGCCGCCTGCCGGAGCTCCAGGTCTACACCCGCGGCAAAAAGTACCAGCGGCTGGTCCGCGCCTCCCCGGCCTTCGACTATGCAGAGTTCGAGCCGCACATCGTGCCCAGCACCAAGAACCCGTAGGTGGTC
GFP positive cells / expression compared to the negative control (Ef1α promoter, final timepoint): 2.7 times
% GFP+ cells at final timepoint (PGK promoter, day 27): 29%
expressing cells / improvement over the negative control (PGK promoter, day 27): 5 fold
% GFP+ cells at final timepoint (RSV promoter, day 26): 76%
% GFP+ cells, representative example (one biological replicate) (RSV promoter, day 26): 79.6%
